This assay addresses His-tagged recombinant C0–C1 domains of cardiac myosin binding protein-C (mouse). As to the kind of experiment: pull-down.

His-tagged recombinant C0–C1 domains of cardiac myosin binding protein-C (mouse), sequence (O70468 whole entry, the tested form may be a part): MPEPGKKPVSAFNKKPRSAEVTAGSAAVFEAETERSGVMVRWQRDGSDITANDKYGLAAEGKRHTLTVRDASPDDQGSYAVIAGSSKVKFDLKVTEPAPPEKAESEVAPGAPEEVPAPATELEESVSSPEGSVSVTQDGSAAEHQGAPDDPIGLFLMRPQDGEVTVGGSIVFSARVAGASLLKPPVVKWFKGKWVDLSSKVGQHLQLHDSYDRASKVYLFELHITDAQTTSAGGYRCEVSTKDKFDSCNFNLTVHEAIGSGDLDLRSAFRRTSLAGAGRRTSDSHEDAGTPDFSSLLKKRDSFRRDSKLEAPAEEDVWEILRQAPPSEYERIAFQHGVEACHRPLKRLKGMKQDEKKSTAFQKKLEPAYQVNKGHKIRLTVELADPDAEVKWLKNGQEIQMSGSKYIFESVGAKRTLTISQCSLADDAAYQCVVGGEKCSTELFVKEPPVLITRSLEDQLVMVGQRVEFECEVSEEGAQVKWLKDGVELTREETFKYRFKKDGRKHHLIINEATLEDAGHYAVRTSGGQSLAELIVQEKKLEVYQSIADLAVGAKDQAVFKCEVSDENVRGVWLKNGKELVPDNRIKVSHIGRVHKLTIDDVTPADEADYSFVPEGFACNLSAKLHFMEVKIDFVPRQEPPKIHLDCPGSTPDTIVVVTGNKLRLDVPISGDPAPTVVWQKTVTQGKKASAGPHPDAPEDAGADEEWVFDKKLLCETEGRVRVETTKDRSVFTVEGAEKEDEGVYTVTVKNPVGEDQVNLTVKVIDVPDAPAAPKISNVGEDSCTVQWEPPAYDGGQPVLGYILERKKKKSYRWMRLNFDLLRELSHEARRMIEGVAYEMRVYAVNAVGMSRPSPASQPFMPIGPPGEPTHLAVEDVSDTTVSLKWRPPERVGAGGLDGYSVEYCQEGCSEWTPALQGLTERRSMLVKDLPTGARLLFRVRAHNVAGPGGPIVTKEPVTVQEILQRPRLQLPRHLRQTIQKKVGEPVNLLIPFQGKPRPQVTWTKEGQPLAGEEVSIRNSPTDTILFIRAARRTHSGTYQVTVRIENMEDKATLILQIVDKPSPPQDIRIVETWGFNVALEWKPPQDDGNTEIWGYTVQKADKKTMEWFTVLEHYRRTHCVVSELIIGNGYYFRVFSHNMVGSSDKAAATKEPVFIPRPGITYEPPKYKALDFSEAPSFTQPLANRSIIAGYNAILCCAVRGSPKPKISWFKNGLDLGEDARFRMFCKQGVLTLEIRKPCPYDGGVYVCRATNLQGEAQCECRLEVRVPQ

Take “sarcomeric actin (from UniProt P68033 1-377) (natural protein)”: the reduction of binding against C0–C2 (quantified blot) is 50%.
